Values joined by “and” are separate entries in the source; they are usually repeats but may differ in a detail not shown here. Equal values may be shown once.
How the values were obtained:
Format in all cases: biochemical
[1] = test system: Bz-PGGYRKHAG-OH / RKHAK-OH (YRKH substrate); assay: Enzymatic activity and maximum product yield of Trypsiligase II-library variants, YRKH substrate; settings: for PPmax vs YRAH (%): 100 μM Bz-PGGYR(A/K)HAG-OH, 200 μM R(A/K)HAK-OH, 100 μM ZnCl2, pH 7.8, 30° C.
Experimental: (§1) Model transamidation reactions were performed in a solution containing 15 to 250 μM acyl donor, 2 eq. of the corresponding acyl acceptor, varying concentrations of trypsin variant, 100 mM HEPES/NaOH pH 7.8, ±0.1 mM ZnC12, 100 mM NaCl, 10 mM CaCl2) at 30° C. Acyl donor and acyl acceptor had the same amino acids in P1′-P3′ position, e.g. Bz-[…]+H-RAHAK-OH or Bz-[…]+H-RKKAK-OH. Variations are indicated. The acyl acceptor could be equipped with a 2,4-Dinitrophenyl group (DNP) at the side chain of the terminal lysine, e.g. H-RAHAK(DNP)-OH or H-RKKAK(DNP)-OH. The reactions were started by the addition of enzyme. To record the time course of product formation and/or for kinetic evaluation of the reaction several aliquots of the reaction mixture were quenched with 25% (v/v) acetic acid at distinct time points within up to 4 hours. The composition of the reaction mixture was analyzed by UPCL with method I or II, depending on the absence (method 1) or presence (method II) of a 2,4-dinitrophenyl group within the acyl acceptor (see example 1). Measurements were performed as duplicates and errors were less than 5%.
(§2) On the basis of these investigations the mutated positions of these two variants 2G10 and 1C11 have been combined in a new enzyme library based on trypsin variant Y39H/Y59H/K60E/D189K (Trypsiligase II), so that the variants resulting from this library benefit from both positive effects and are thus further optimized. Accordingly, positions 40, 55, 96, 97, 143, 151, 190, 192, 214, 219 and 221 were randomized in this Trypsiligase II library, while the mutation L99F was fixed because it was present in both Trypsiligase I libraries A and B. Positions 143 and 151 in Trypsiligase I are responsible for zinc complexation and thus convey histidine specificity for the recognition sequence YRH. In Trypsiligase II, this histidine specificity is shifted by positions 39 and 59, resulting in the recognition sequence YRAH. Thus, positions 143 and 151, which are potentially responsible for P2′ position specificity, are available for randomization in the Trypsiligase II library. In addition to the desired effect of increasing the affinity to the substrate/nucleophile, this could also lead to a possible independence of zinc complexation, which would be desirable with regard to the application-oriented modification of recombinant proteins. Using phage display and an ELISA-based screening, the Trypsiligase II variants illustrated in Table 3 and 4 have been identified.

[2] = test system: H-RAHAK(DNP)-OH (acyl acceptor), acyl donor Bz-PGGYRAHAG-OH; assay: KM value of the nucleophilic peptide (acyl acceptor); settings: for Km: Zinc ions: no, 250 μM Bz-PGGYRAHAG-OH, varying H-RAHAK(DNP)-OH
Experimental: For Trypsiligase II the measurements for KM values of the nucleophilic peptide (acyl acceptor) were carried out in the presence or absence of zinc ions due to its strong zinc ion dependency. In case of variant A2C8 measurements were carried out in the absence of zinc ions.
Transamidation reactions with Trypsiligase II and variant A2C8 were performed in a solution containing 250 μM of the acyl donor Bz-[…]-OH, varying concentrations of the acyl acceptor H-RAHAK(DNP)-OH (0-5000 μM for Trypsiligase II in the absence of zinc ions, 0-1500 μM for Trypsiligase II in the presence of zinc ions, 0-1000 μM for variant A2C8), 0.2-1.5 μM trypsin variant, 100 mM HEPES/NaOH pH 7.8, ±0.1 mM ZnCl2, 100 mM NaCl, 10 mM CaCl2 at 30° C. The reaction was started by the addition of enzyme. For kinetic evaluation of the reaction several aliquots of the reaction mixture were quenched with 25% (v/v) acetic acid at distinct time points within 30 minutes. The composition of the reaction mixture was analyzed by UPCL using method II (see example 1). UV absorption of the 2,4-Dinitrophenyl group (DNP), which is present in the acyl acceptor as well as in the aminolysis product, was detected at 360 nm. To determine the KM value of the nucleophilic peptide the initial rates for the aminolysis reaction were plotted against the corresponding acyl acceptor concentration and fitted to the Michaelis Menten equation. Measurements were performed as duplicates and errors were less than 5%.

[3] = test system: Bz-PGGYRAHAG-OH / RAHAK-OH (YRAH substrate); assay: Enzymatic activity and maximum product yield of Trypsiligase II-library variants, YRAH substrate; settings: for AS A[YRAH]/AS A + H[YRAH] / YRAH/YRKH, quotient of max. product yield for YRAH subtrate/YRKH substrate: Table 3; for Pmax vs YRAH (%): Table 3, first column group
Experimental: as §1, §2

[4] = test system: Bz-PGGYRAHAG-OH (acyl donor) / H-RAHAK(DNP)-OH (acyl acceptor); assay: Maximum product yield of transamidation (Table 7); settings: Zinc ions (100 μM): no; two equivalents of acyl acceptor and 250 μM acyl donor
Experimental: as §1

[5] = test system: Bz-PGGYRKKAG-OH (acyl donor) / H-RKKAK-OH (acyl acceptor); assay: Model transamidation at high and low substrate concentrations, A2C8 and K7F11; settings: for product yield (%) / kcat, AL^app (mkat/mol) / kcat, AL^app/kcat, HL^app / kcat, HL^app (mkat/mol): no ZnCl2
Experimental: as §1
The suitability of variant A2C8 and K7F11 as transamidases was further investigated in comparison to the native Trypsiligase II. Therefore the enzymatic parameters for the catalyzed transamidation reaction were determined by a model transamidation reaction using peptide substrates with the preferred recognition motive. In addition the model transamidation reaction was performed at high (250 μM) and low (15 μM) substrate concentrations to check, whether the new biocatalysts could also efficiently catalyze the desired reaction at low substrate concentration, which is a crucial requirement for the modification of therapeutic proteins. […] It was assumed that an improved transamidation activity is reached by introducing mutations which improve the affinity of the biocatalyst for the nucleophilic peptide and/or reduce its hydrolysis activity. Therefore corresponding experimental data describing both parameters for the native Trypsiligase II as well as variant A2C8 were determined.

[6] = 100 μM Bz-PGGYR(A/K)HAG-OH, 200 μM R(A/K)HAK-OH, 100 μM ZnCl2, pH 7.8, 30° C.
[7] = Table 3, group (YRAH), 100 μM ZnCl2
[8] = low substrate concentration (15 μM)

Molecule | AS A/H, quotient of aminolysis/hydrolysis activity ([1]; Table 3) | PPmax vs YRAH (%) ([1]; Table 3) | AS[AL] (mkat/moL), specific aminolysis activity ([1]; Table 3, 100 μM ZnCl2) [mkat/moL] | AS[HL] (mkat/moL), specific hydrolysis activity ([1]; Table 3, 100 μM ZnCl2) [mkat/moL] | Km [2] [µM] | AS A[YRAH]/AS A + H[YRAH] [3] | YRAH/YRKH, quotient of max. product yield for YRAH subtrate/YRKH substrate [3] | Pmax vs YRAH (%) [3, 6] [%] | AS A/H, quotient of aminolysis/hydrolysis activity ([3]; Table 3, group (YRAH)) | AS[AL] (mkat/mol), specific aminolysis activity [3, 7] [mkat/mol] | AS[HL] (mkat/mol), specific hydrolysis activity [3, 7] [mkat/mol] | product yield (%) [4] [%] | also measured
Trypsiligase II (trypsin variant Y39H/Y59H/K60E/D189K) (protein) IVGGYTCQENSVPYQVSLNSGHHFCGGSLINDQWVVSAAHCHESRIQVRLGEHNINVLEGNEQFVNAAKIIKHPNFDRKTLNNDIMLIKLSSPVKLNARVATVALPSSCAPAGTQCLISGWGNTLSSGVNEPDLLQCLDAPLLPQADCEASYPGKITDNMVCVGFLEGGKKSCQGDSGGPVVCNGELQGIVSWGYGCALPDNPGVYTKVCNYVDWIQDTIAAN | 0.0 | 1.5 | 0.5 | 16.3 | 1630 | 0.1 | 6.0 | 8.9 | 0.3 | 2.4 | 7.8 | 4.2 | AS A/H, quotient of aminolysis/hydrolysis activity ([1]; Table 4): 0.0; AS A[YRAH]/AS A + H[YRAH] ([1]; Table 4): 0.0; YRAH/YRKH, quotient of max. product yield ([1]; Table 4): 0.2; PPmax vs YRAH (%) ([1]; Table 4): 1.5%; AS[AL] (mkat/mol), specific aminolysis activity ([1]; Table 4, 100 μM ZnCl2): 0.5 mkat/mol; AS[HL] (mkat/mol), specific hydrolysis activity ([1]; Table 4, 100 μM ZnCl2): 16.3 mkat/mol; AS A/H, quotient of aminolysis/hydrolysis activity ([3]; Table 4): 0.3; PPmax vs YRAH (%) ([3]; Table 4, 100 μM Bz-PGGYR(A/K)HAG-OH, 200 μM R(A/K)HAK-OH, 100 μM ZnCl2, pH 7.8, 30° C.): 8.9%; AS[AL] (mkat/moL), specific aminolysis activity ([3]; Table 4, 100 μM ZnCl2): 2.4 mkat/moL; AS[HL] (mkat/moL), specific hydrolysis activity ([3]; Table 4, 100 μM ZnCl2): 7.8 mkat/moL
A2C8: Trypsiligase II + H40F, A55A, R96E, K97D, L99F, N143E, E151Y, S190V, Q192A, S214G, G219Q, A221T (protein) IVGGYTCQENSVPYQVSLNSGHFFCGGSLINDQWVVSAAHCHESRIQVRLGEHNINVLEGNEQFVNAAKIIKHPNFDEDTFNNDIMLIKLSSPVKLNARVATVALPSSCAPAGTQCLISGWGETLSSGVNYPDLLQCLDAPLLPQADCEASYPGKITDNMVCVGFLEGGKKVCAGDSGGPVVCNGELQGIVGWGYQCTLPDNPGVYTKVCNYVDWIQDTIAAN | 6.9 | 51.3 | 8.9 | 1.3 | 17.6 | 1.6 | 1.0 | 53.1 | 10.9 | 15.8 | 1.5 | 59.7 | product yield (%) ([5]; [Substrate] 15 μM Bz-PGGYRKKAG-OH, 30 μM H-RKKAK-OH): 46% and 46.2%; kcat, AL^app (mkat/mol) ([5]; [Substrate] 15 μM): 10.68 mkat/mol; kcat, AL^app/kcat, HL^app ([5]; [Substrate] 15 μM): 7.4; kcat, HL^app (mkat/mol) ([5]; [Substrate] 15 μM): 1.44 mkat/mol; product yield (%) ([5]; [Substrate] 250 μM Bz-PGGYRKKAG-OH, 500 μM H-RKKAK-OH): 64.9%; kcat, AL^app (mkat/mol) ([5]; [Substrate] 250 μM): 71.61 mkat/mol; kcat, AL^app/kcat, HL^app ([5]; [Substrate] 250 μM): 70 and 70.9; kcat, HL^app (mkat/mol) ([5]; [Substrate] 250 μM): 1.01 mkat/mol; apparent turnover rate of aminolysis relative to hydrolysis [5, 8]: sevenfold higher apparent turnover rate; fold higher product yield than the native Trypsiligase II [5, 8]: 14; improvement of the enzyme affinity for the nucleophilic peptide versus native Trypsiligase II (factor) ([2]; Trypsiligase II in the absence of zinc ions): 92; improvement of the enzyme affinity for the nucleophilic peptide versus native Trypsiligase II (factor) ([2]; Trypsiligase II in the presence of zinc ions): 8
